Laboratory results reported in patent US20190177426A1 (BRIGHAM AND WOMEN S HOSPITAL, published 2019).

Legend:
human fibulin-3 [1] = target: T1, human fibulin-3 (human, UniProt Q12805 18-493, limits assumed); test: method not stated there (summary of the tests)
T1 construct: Purified human fibulin-3 in Western blot, dot blot and BIACORE (there pretreated with 10 mM DTT to dissociate multimers); The same entry is used for fibulin-3 secreted by transfected CNS1 cells and for native fibulin-3 in human tissue sections; also called Fib3; EFEMP1 gene product
T1 sequence (looked up): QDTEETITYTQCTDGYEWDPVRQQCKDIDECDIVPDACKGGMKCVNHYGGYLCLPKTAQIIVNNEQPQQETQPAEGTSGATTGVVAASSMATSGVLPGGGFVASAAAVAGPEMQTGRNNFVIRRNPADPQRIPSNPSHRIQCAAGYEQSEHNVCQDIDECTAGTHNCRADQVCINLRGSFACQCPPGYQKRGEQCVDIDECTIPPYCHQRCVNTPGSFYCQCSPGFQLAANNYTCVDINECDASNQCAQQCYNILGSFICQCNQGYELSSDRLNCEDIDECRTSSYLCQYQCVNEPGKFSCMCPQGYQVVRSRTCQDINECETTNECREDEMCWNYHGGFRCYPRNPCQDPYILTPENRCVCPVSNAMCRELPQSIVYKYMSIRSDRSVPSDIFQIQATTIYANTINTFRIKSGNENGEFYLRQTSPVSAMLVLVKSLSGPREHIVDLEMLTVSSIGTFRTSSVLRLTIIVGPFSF
Procedure: (§1) Experiments were performed in duplicate and fit to a 1:1 binding interaction model.

human fibulin-3 [2] = target: T1, human fibulin-3; test: SPR (BIACORE), antibody immobilized on the chip, purified human fibulin-3 pretreated with 10 mM DTT, duplicate, 1:1 model
Procedure: as §1

human fibulin-3 [3] = target: T1, human fibulin-3; test: BIACORE, antibody immobilised on the chip, purified human fibulin-3 pretreated with 10 mM DTT as analyte (200-600 nM), 1:1 model; first of two runs (upper panel)
Procedure: as §1

human fibulin-3 [4] = target: T1, human fibulin-3; test: BIACORE, antibody immobilised on the chip, purified human fibulin-3 pretreated with 10 mM DTT as analyte (200-600 nM), 1:1 model; second of two runs (lower panel)
Procedure: as §1

B1: mAb428.2.3C11.H11.G3 (antibody, IgG1, V domains shown)
VH: QIQLVQSGPELKKPGETVKISCKASGYSFTTYGMSWVKQAPGKGLKWMGWINTYSGVPTYADDFKGRFAFFLETSASTAYLQINNLKNEDTATYFCARWVDYWGQGTTLTVSS
VL: DIKMTQSPSSMYASLGERVTITCKASQDIKSYLSWHQQKPWKSPKTLIYYATSLADGVPSRFSGSGSGQDYSLTISSLESDDTATYYCLQHGKSPYTFGGGTKLEIK
notes: also called mAb428.3C11; mAb428.3C11.H11.G3
With B1 the Kd (human fibulin-3 [1]) was 5 nM, the Kd (human fibulin-3 [2]) was ~4.5 nM and the Kd (human fibulin-3 [3]) was 6.97 nM. For the same binder, the Kd (human fibulin-3 [4]) was 2.03 nM.
